Numbering of substitutions follows the chain as printed. Values joined by “and” are separate entries in the source; they are usually repeats but may differ in a detail not shown here. Identical values can stand only once. Like-named read-outs stand apart in the source and are kept apart here. Blank lines part the entries; values can stand above or below the binder they belong to.
Columns and labels:
[1] = biological target: T1, human IL-18R1 and IL-18RAP on IL-18 Reporter HEK 293 Cells (human, UniProt Q13478 19-541; O95256 20-599); experiment: cell-based or functional assay
T1 sequence (looked up) 1: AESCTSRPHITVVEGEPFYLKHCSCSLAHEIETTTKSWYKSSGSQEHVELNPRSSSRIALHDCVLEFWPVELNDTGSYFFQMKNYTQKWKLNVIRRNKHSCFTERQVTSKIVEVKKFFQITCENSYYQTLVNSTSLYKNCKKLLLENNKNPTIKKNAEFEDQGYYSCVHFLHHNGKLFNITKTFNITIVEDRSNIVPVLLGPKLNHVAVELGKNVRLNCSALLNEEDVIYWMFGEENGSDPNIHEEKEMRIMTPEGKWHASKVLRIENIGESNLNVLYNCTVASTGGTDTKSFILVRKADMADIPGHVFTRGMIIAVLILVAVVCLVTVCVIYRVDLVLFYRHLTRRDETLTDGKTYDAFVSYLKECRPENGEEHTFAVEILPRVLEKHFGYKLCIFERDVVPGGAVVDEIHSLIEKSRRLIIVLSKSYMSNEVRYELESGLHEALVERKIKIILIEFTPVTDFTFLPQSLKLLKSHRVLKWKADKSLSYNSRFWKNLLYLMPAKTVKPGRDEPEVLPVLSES
T1 sequence (looked up) 2: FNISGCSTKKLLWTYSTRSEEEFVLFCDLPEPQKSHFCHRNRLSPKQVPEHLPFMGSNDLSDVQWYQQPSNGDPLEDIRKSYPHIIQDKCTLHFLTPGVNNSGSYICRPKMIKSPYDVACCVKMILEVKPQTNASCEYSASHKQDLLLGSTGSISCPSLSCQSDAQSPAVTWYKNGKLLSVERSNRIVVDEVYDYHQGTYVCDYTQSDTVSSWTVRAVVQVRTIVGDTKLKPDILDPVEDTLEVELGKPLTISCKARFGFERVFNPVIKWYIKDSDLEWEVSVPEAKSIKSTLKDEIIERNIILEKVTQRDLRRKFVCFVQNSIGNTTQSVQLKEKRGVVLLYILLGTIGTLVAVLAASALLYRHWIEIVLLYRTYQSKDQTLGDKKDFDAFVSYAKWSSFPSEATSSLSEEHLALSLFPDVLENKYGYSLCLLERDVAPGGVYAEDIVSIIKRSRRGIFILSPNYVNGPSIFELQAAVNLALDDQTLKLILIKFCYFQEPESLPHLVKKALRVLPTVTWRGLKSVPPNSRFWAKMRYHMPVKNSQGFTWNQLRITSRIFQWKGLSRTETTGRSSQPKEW

[2] = biological target: T1, human IL-18R1 and IL-18RAP on IL-18 …; experiment: cell-based or functional assay; remark: listed apart in the source

B1: hzWio-02-01-His (bispecific antibody)
chain: EVQLVESGGGLVQPGGSLRLSCAASGTAYDNACMGWFRQAPGKEREGVASIHLRDRTYYADSVKGRFTISRDNSKNTLYLQMNSLRAEDTAVYYCASSNICNALNLQGNTYWGQGTLVTVSSGGGGSEVQLLESGGGLVQPGGSLRLSCAASGYTYGPYCMGWFRQAPGKEREGVAAVGGDARTWYGNSVKGRFTISRDNSKNTLYLQMNSLRAEDTAVYYCAADFDRTVCSDDIYDYTYRGQGTLVTVSSHHHHHH
EC50 [1]: 0.417 ng/mL
Top630nm [1]: 1.93
EC50 [2]: 2.3 ng/mL
Top530nm [2]: 1.05

B7: hzWio-02-01-Hm35 (bispecific antibody)
chain: B1 chain with T110H
EC50 [2]: 6.99 ng/mL
Top530nm [2]: 1.18

B9: hzWio-02-01-Hm30 (bispecific antibody)
chain: B1 chain with N105H
EC50 [2]: 28.7 ng/mL
Top530nm [2]: 0.349

B11: hzWio-02-01-Hm28 (bispecific antibody)
chain: B1 chain with A103H
EC50 [2]: 0.42 ng/mL
Top530nm [2]: 0.821

B15: hzWio-02-01-Hm29 (bispecific antibody)
chain: B1 chain with L104H
EC50 [2]: 0.67 ng/mL and 1.49 ng/mL

B17: hzWio-02-03-His (bispecific antibody)
chain: EVQLVESGGGLVQPGGSLRLSCAASGNLYRDPCMGWFRQAPGKDREGVAAMNTGADSTFYARSVKGRFTISRDNAKNTLYLQMNSLRAEDTAVYYCAASRYCTERTYTWRYDYDYWGQGTLVTVSSGGGGSEVQLVESGGGLVQPGGSLRLSCAASGFTYIPAYMGWFRQAPGKERERVASIKTDASTTYADSVEGRFTISQDNAKNTLYLQMNSLRPEDTAVYYCAAYQFGAFRVWGQGTLVTVSSHHHHHH
EC50 [1]: 0.394 ng/mL
Top630nm [1]: 1.82

B19: hzWio-02-29 (His form) (bispecific antibody)
chain: EVQLLESGGGLVQPGGSLRLSCAASGYTYGPYCMGWFRQAPGKEREGVAAVGGDARTWYGNSVKGRFTISRDNSKNTLYLQMNSLRAEDTAVYYCAADFDRTVCSDDIYDYTYRGQGTLVTVSSGGGGSEVQLVESGGGLVQPGGSLRLSCAASGTAYDNACMGWFRQAPGKEREGVASIHLRDRTYYADSVKGRFTISRDNSKNTLYLQMNSLRAEDTAVYYCASSNICNALNLQGNTYWGQGTLVTVSSHHHHHH
EC50 [1]: 0.503 ng/mL
Top630nm [1]: 1.61

B20: hzWio-02-31 (His form) (bispecific antibody)
chain: EVQLVESGGGLVQPGGSLRLSCAASGFTYIPAYMGWFRQAPGKERERVASISSTEGSTTYADSVKGRFTISQDNSKNTLYLQMNSLRPEDTAVYYCAAYQFGAFRVWGQGTLVTVSSGGGGSEVQLVESGGGLVQPGGSLRLSCAASGFTVHDMGWYRQAPGKECELVSTISSDASTYYADSVKGRFTISRDNAKNTLYLQMNSLRAEDTAVYYCAADSFTGLQLAECKADFGYWGQGTLVTVSSHHHHHH
EC50 [1]: 2.58 ng/mL
Top630nm [1]: 0.779

B22: hzWio-02-23-His (bispecific antibody)
chain: EVQLVESGGGLVQPGGSLRLSCAASGFTVHDMGWYRQAPGKECELVSTISSDASTYYADSVKGRFTISRDNAKNTLYLQMNSLRAEDTAVYYCAADSFTGLQLAECKADFGYWGQGTLVTVSSGGGGSEVQLVESGGGLVQPGGSLRLSCAASGFTYIPAYMGWFRQAPGKERERVASISSTEGSTTYADSVKGRFTISQDNSKNTLYLQMNSLRPEDTAVYYCAAYQFGAFRVWGQGTLVTVSSHHHHHH
EC50 [1]: 0.13 ng/mL
Top630nm [1]: 1.95

B23: hzWio-02-11-His (bispecific antibody)
chain: EVQLVESGGGLVQPGGSLRLSCAASGSTFDEYDMGWYRQAPGGKCELVSTISTIDASTYYADSVKGRFTISRDNSKNTLYLQMNSLRAEDTAVYYCEADDRGTWDRGGCWGQGTLVTVSSGGGGSEVQLVESGGGLVQPGGSLRLSCAASGFTYIPAYMGWFRQAPGKERERVASISSTEGSTTYADSVKGRFTISQDNSKNTLYLQMNSLRPEDTAVYYCAAYQFGAFRVWGQGTLVTVSSHHHHHH
EC50 [1]: 0.101 ng/mL
Top630nm [1]: 1.58

B24: hzWio-02-44 (His form) (bispecific antibody)
chain: EVQLLESGGGLVQPGGSLRLSCAASGYTYGPYCMGWFRQAPGKEREGVAAVGGDARTWYGNSVKGRFTISRDNSKNTLYLQMNSLRAEDTAVYYCAADFDRTVCSDDIYDYTYRGQGTLVTVSSGGGGSQVQLQESGGGSVQAGGSLRLSCVASGTTMSMNYMAWFRQAPGKEREGVASIFRSTHYADSVKGRFTIAEDSAKNTVYLQMNSLKPEDTAVYYCAAGRTKPYLTPLAESQYNYWGQGIQVTVSSHHHHHH
EC50 [1]: 2.66 ng/mL
Top630nm [1]: 0.912

B25: hzWio-02-09 (His form) (bispecific antibody)
chain: EVQLVESGGGLVQPGGSLRLSCAASGSTFDEYDMGWYRQAPGGKCELVSTISTIDASTYYADSVKGRFTISRDNSKNTLYLQMNSLRAEDTAVYYCEADDRGTWDRGGCWGQGTLVTVSSGGGGSEVQLVESGGGLVQPGGSLRLSCAASGFTYIPAYMGWFRQAPGKERERVASIKTDASTTYADSVEGRFTISQDNAKNTLYLQMNSLRPEDTAVYYCAAYQFGAFRVWGQGTLVTVSSHHHHHH
EC50 [1]: 0.668 ng/mL
Top630nm [1]: 1.88

The next lines start with the values.

EC50 [2]: 12.9 ng/mL
Top530nm [2]: 1
B2: hzWio-02-01-Hm34 (bispecific antibody)
chain: B1 chain with N109H

EC50 [2]: 10.9 ng/mL
Top530nm [2]: 1.09
B3: hzWio-02-01-Hm32 (bispecific antibody)
chain: B1 chain with Q107H

EC50 [2]: 19.5 ng/mL
Top530nm [2]: 1.1
B4: hzWio-02-01-Hm33 (bispecific antibody)
chain: B1 chain with G108H

EC50 [2]: 1.97 ng/mL
Top530nm [2]: 0.774
B5: hzWio-02-01-Hm24 (bispecific antibody)
chain: B1 chain with S98H

EC50 [2]: 0.433 ng/mL
Top530nm [2]: 0.773
B6: hzWio-02-01-Hm27 (bispecific antibody)
chain: B1 chain with N102H

EC50 [2]: 0.182 ng/mL
Top530nm [2]: 0.773
B8: hzWio-02-01-Hm22 (bispecific antibody)
chain: B1 chain with K64H

EC50 [2]: 0.301 ng/mL
Top530nm [2]: 0.764
B10: hzWio-02-01-Hm26 (bispecific antibody)
chain: B1 chain with I100H

EC50 [2]: 2.12 ng/mL
Top530nm [2]: 1.12
B12: hzWio-02-01-Hm21 (bispecific antibody)
chain: B1 chain with V63H

EC50 [2]: 7.75 ng/mL
Top530nm [2]: 1.05
B13: hzWio-02-01-Hm31 (bispecific antibody)
chain: B1 chain with L106H

EC50 [2]: 0.04 ng/mL
Top530nm [2]: 0.738
B14: hzWio-02-01-Hm25 (bispecific antibody)
chain: B1 chain with N99H

EC50 [2]: 0.238 ng/mL
Top530nm [2]: 0.794
B16: hzWio-02-01-Hm23 (bispecific antibody)
chain: B1 chain with G65H

EC50 [1]: 2.74 ng/mL
Top630nm [1]: 0.837
B18: hzWio-02-30 (His form) (bispecific antibody)
chain: EVQLVESGGGLVQPGGSLRLSCAASGFTYIPAYMGWFRQAPGKERERVASISSTEGSTTYADSVKGRFTISQDNSKNTLYLQMNSLRPEDTAVYYCAAYQFGAFRVWGQGTLVTVSSGGGGSEVQLVESGGGLVQPGGSLRLSCAASGSTFDEYDMGWYRQAPGGKCELVSTISTIDASTYYADSVKGRFTISRDNSKNTLYLQMNSLRAEDTAVYYCEADDRGTWDRGGCWGQGTLVTVSSHHHHHH

EC50 [1]: 0.201 ng/mL
Top630nm [1]: 1.72
B21: hzWio-02-05-His (bispecific antibody)
chain: EVQLVESGGGLVQPGGSLRLSCAASGNLYRDPCMGWFRQAPGKDREGVAAMNTGADSTFYARSVKGRFTISRDNAKNTLYLQMNSLRAEDTAVYYCAASRYCTERTYTWRYDYDYWGQGTLVTVSSGGGGSEVQLVESGGGLVQPGGSLRLSCAASGFTYIPAYMGWFRQAPGKERERVASISSTEGSTTYADSVKGRFTISQDNSKNTLYLQMNSLRPEDTAVYYCAAYQFGAFRVWGQGTLVTVSSHHHHHH

— patent publication EP4711384A1 (WIO Bioscience Co., Ltd., dated 2026)
